Experimental data: the Human Domainome abundance scans (Beltran et al. 2025)
± gives the uncertainty stated by the source.

B1: Gamma-crystallin S, residues 96 to 176; numbered along this chain, P22914 (parent)
chain: IQIFEKGDFSGQMYETTEDCPSIMEQFHMREIHSCKVLEGVWIFYELPNYRGRQYLLDKKEYRKPIDWGAASPAVQSFRRI

Variants of: B1
Assay: abundance fitness (aPCA) (normalised: wild type 0, dead -1); higher = more abundant; growth selection in yeast, the domain comes from the species named
Settings: Homo sapiens

| Variant | abundance fitness |
| --- | --- |
| IQIFEKGDFSGQMYETTEDCPSIMEQFHMRCIHSCKVLEGVWIFYELPNYRGRQYLLDKKEYRKPIDWGAASPAVQSFRRI [E31C] | -0.13 ± 0.12 |
| IQIFEKGDFSGQMYETTEDCPSIMEQFHMRMIHSCKVLEGVWIFYELPNYRGRQYLLDKKEYRKPIDWGAASPAVQSFRRI [E31M] | -0.039 ± 0.089 |
| IQIFEKGDFSGQMYETTEDCPSIMEQFHMRGIHSCKVLEGVWIFYELPNYRGRQYLLDKKEYRKPIDWGAASPAVQSFRRI [E31G] | 0.015 ± 0.045 |
| IQIFEKGDFSGQMYETTEDCPSIMEQFHMRDIHSCKVLEGVWIFYELPNYRGRQYLLDKKEYRKPIDWGAASPAVQSFRRI [E31D] | 0.138 ± 0.12 |
| IQIFEKGDFSGQMYETTEDCPSIMEQFHMRFIHSCKVLEGVWIFYELPNYRGRQYLLDKKEYRKPIDWGAASPAVQSFRRI [E31F] | 0.041 ± 0.081 |
| IQIFEKGDFSGQMYETTEDCPSIMEQFHMRKIHSCKVLEGVWIFYELPNYRGRQYLLDKKEYRKPIDWGAASPAVQSFRRI [E31K] | -0.034 ± 0.1 |
| IQIFEKGDFSGQMYETTEDCPSIMEQFHMRAIHSCKVLEGVWIFYELPNYRGRQYLLDKKEYRKPIDWGAASPAVQSFRRI [E31A] | 0.066 ± 0.048 |
| IQIFEKGDFSGQMYETTEDCPSIMEQFHMRHIHSCKVLEGVWIFYELPNYRGRQYLLDKKEYRKPIDWGAASPAVQSFRRI [E31H] | 0.069 ± 0.14 |
| IQIFEKGDFSGQMYETTEDCPSIMEQFHMRLIHSCKVLEGVWIFYELPNYRGRQYLLDKKEYRKPIDWGAASPAVQSFRRI [E31L] | 0.056 ± 0.051 |
| IQIFEKGDFSGQMYETTEDCPSIMEQFHMRIIHSCKVLEGVWIFYELPNYRGRQYLLDKKEYRKPIDWGAASPAVQSFRRI [E31I] | 0.05 ± 0.081 |
| IQIFEKGDFSGQMYETTEDCPSIMEQFHWREIHSCKVLEGVWIFYELPNYRGRQYLLDKKEYRKPIDWGAASPAVQSFRRI [M29W] | 0.027 ± 0.071 |
| IQIFEKGDFSGQMYETTEDCPSIMEQFHIREIHSCKVLEGVWIFYELPNYRGRQYLLDKKEYRKPIDWGAASPAVQSFRRI [M29I] | -0.015 ± 0.11 |
| IQIFEKGDFSGQMYETTEDCPSIMEQFHTREIHSCKVLEGVWIFYELPNYRGRQYLLDKKEYRKPIDWGAASPAVQSFRRI [M29T] | 0.109 ± 0.09 |
| IQIFEKGDFSGQMYETTEDCPSIMEQFHCREIHSCKVLEGVWIFYELPNYRGRQYLLDKKEYRKPIDWGAASPAVQSFRRI [M29C] | 0.132 ± 0.13 |
| IQIFEKGDFSGQMYETTEDCPSIMEQFHDREIHSCKVLEGVWIFYELPNYRGRQYLLDKKEYRKPIDWGAASPAVQSFRRI [M29D] | 0.034 ± 0.09 |
| IQIFEKGDFSGQMYETTEDCPSIMEQFHGREIHSCKVLEGVWIFYELPNYRGRQYLLDKKEYRKPIDWGAASPAVQSFRRI [M29G] | 0.053 ± 0.045 |
| IQIFEKGDFSGQMYETTEDCPSIMEQFHEREIHSCKVLEGVWIFYELPNYRGRQYLLDKKEYRKPIDWGAASPAVQSFRRI [M29E] | 0.109 ± 0.078 |

| Variant | abundance fitness |
| --- | --- |
| IQIFEKGDFSGQMYETTEDCPSIMEQFHFREIHSCKVLEGVWIFYELPNYRGRQYLLDKKEYRKPIDWGAASPAVQSFRRI [M29F] | 0.036 ± 0.076 |
| IQIFEKGDFSGQMYETTEDCPSIMEQFHAREIHSCKVLEGVWIFYELPNYRGRQYLLDKKEYRKPIDWGAASPAVQSFRRI [M29A] | 0.048 ± 0.046 |
| IQIFEKGDFSGQMYETTEDCPSIMEQFHSREIHSCKVLEGVWIFYELPNYRGRQYLLDKKEYRKPIDWGAASPAVQSFRRI [M29S] | 0.063 ± 0.051 |
| IQIFEKGDFSGQMYETTEDCPSIMEQFHVREIHSCKVLEGVWIFYELPNYRGRQYLLDKKEYRKPIDWGAASPAVQSFRRI [M29V] | 0.034 ± 0.052 |
| IQIFEKGDFSGQMYETTEDCPSIMEQFHPREIHSCKVLEGVWIFYELPNYRGRQYLLDKKEYRKPIDWGAASPAVQSFRRI [M29P] | 0.058 ± 0.079 |
| IQIFEKGDFSGQMYETTEDCPSIMEQFHKREIHSCKVLEGVWIFYELPNYRGRQYLLDKKEYRKPIDWGAASPAVQSFRRI [M29K] | -0.006 ± 0.11 |
| IQIFEKGDFSGQMYETTEDCPSIMEQFHYREIHSCKVLEGVWIFYELPNYRGRQYLLDKKEYRKPIDWGAASPAVQSFRRI [M29Y] | 0.025 ± 0.14 |
| IQIFEKGDFSGQMYETTEDCPSIMEQFHHREIHSCKVLEGVWIFYELPNYRGRQYLLDKKEYRKPIDWGAASPAVQSFRRI [M29H] | 0.124 ± 0.21 |
| IQIFEKGDFSGQMYETTEDCPSIMEQFHQREIHSCKVLEGVWIFYELPNYRGRQYLLDKKEYRKPIDWGAASPAVQSFRRI [M29Q] | 0.048 ± 0.14 |
| IQIFEKGDFSGQMYETTEDCPSIMEQFHLREIHSCKVLEGVWIFYELPNYRGRQYLLDKKEYRKPIDWGAASPAVQSFRRI [M29L] | -0.084 ± 0.055 |
| IQIFEKGDFSGQMYETTEDCPSIMEQFHNREIHSCKVLEGVWIFYELPNYRGRQYLLDKKEYRKPIDWGAASPAVQSFRRI [M29N] | 0.226 ± 0.13 |
| IQIFEKGDFSGQMYETTEDCPSIMEQFHMIEIHSCKVLEGVWIFYELPNYRGRQYLLDKKEYRKPIDWGAASPAVQSFRRI [R30I] | -0.099 ± 0.11 |
| IQIFEKGDFSGQMYETTEDCPSIMEQFHMFEIHSCKVLEGVWIFYELPNYRGRQYLLDKKEYRKPIDWGAASPAVQSFRRI [R30F] | 0.005 ± 0.072 |
| IQIFEKGDFSGQMYETTEDCPSIMEQFHMCEIHSCKVLEGVWIFYELPNYRGRQYLLDKKEYRKPIDWGAASPAVQSFRRI [R30C] | 0.009 ± 0.058 |
| IQIFEKGDFSGQMYETTEDCPSIMEQFHMHEIHSCKVLEGVWIFYELPNYRGRQYLLDKKEYRKPIDWGAASPAVQSFRRI [R30H] | 0.026 ± 0.095 |
| IQIFEKGDFSGQMYETTEDCPSIMEQFHMWEIHSCKVLEGVWIFYELPNYRGRQYLLDKKEYRKPIDWGAASPAVQSFRRI [R30W] | 0.105 ± 0.051 |
| IQIFEKGDFSGQMYETTEDCPSIMEQFHMVEIHSCKVLEGVWIFYELPNYRGRQYLLDKKEYRKPIDWGAASPAVQSFRRI [R30V] | -0.144 ± 0.038 |
